The test system of the series is Bacillus subtilis DB104 (SP-AmyQ fusion secretion). The series is described as follows: AmyQ secretion efficiency, weighted average sort bin (1 = best secretion, 10 = worst) (bin number (weighted average, 1-10)); higher = lower secretion efficiency. An outline of the steps: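 The secretion score gives the average bin number weighted by read frequency and normalised to beads per bin, with low-abundance sequences excluded. Bins were 10 equally populated green/red fluorescence ratio fractions of occupied ~65 nL alginate beads, sorted by large-particle flow cytometry. The beads held fluorescein-starch and about 0.3 cells each of an amyE-integrated B. subtilis DB104 library fusing designed signal peptides to mature AmyQ, and they were grown about 13 h at room temperature and stained with nile red before sorting and Illumina sequencing.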

“And” between values parts separate entries of the source, which are not always exact repeats. Identical values can stand only once.

Consider MKKELRRKKKRCLSLSPLVSTNEVFAATT, for which the AmyQ secretion efficiency was determined as 6.21.

MKKERGGTYVLCLSLSPLVSTNEVFAATT came in with an AmyQ secretion efficiency of 8.09.

In turn, MKKFFGPIILAFILFAGAIAIPS came in with an AmyQ secretion efficiency of 6.93.

Sequence MKKFIFNMFIGLLFMLCLAALFTIGFPAQQADAAEA gave an AmyQ secretion efficiency of 2.9.

Consider MKKFIVFICFFVLFSVHPIAAAAADS, for which the AmyQ secretion efficiency stood at 4.38.

Take MKKFLLVSFVLFFALSTGITGVQAAPA: the AmyQ secretion efficiency worked out at 2.2.

In turn, MKKFLVALTMCGGLFVTPAKAVKT registered an AmyQ secretion efficiency of 3.65.

In turn, MKKFLVSLIIGTFVISVPFMANAQSD showed an AmyQ secretion efficiency of 1.69.

MKKFMNFSSVMLATALFLGLTPAGANAADL registered an AmyQ secretion efficiency of 4.23.

In turn, MKKFVAVAALSTTAFGAHASAKEI yielded an AmyQ secretion efficiency of 6.74.

For MKKGIIRFLLVSFVLFFALDEDITGVQAAPA, the AmyQ secretion efficiency amounted to 3.78.

Regarding MKKGIIRFLLVSFVLFFALFAFIAFGGGTTVQAAPA, the AmyQ secretion efficiency amounted to 1.86.

MKKGIIRFLLVSFVLFFALKKRITGVQAAPA registered an AmyQ secretion efficiency of 6.43.

Consider “MKKGIIRFLLVSFVLFFALLAFVVISFFSTGITGVQAAPA”, for which the AmyQ secretion efficiency amounted to 2.07.

In the case of MKKGIIRFLLVSFVLFFALRRKKKRVQAAPA, the AmyQ secretion efficiency came out at 5.81.

As for MKKGIIRFLLVSFVLFFALSSTGITGVQAAPA, the AmyQ secretion efficiency was 1.83.

MKKGIIRFLLVSFVLFFALSTGITGAQAAPA came in with an AmyQ secretion efficiency of 2.21.

MKKGIIRFLLVSFVLFFALSTGITGFQAAPA gave an AmyQ secretion efficiency of 5.1.

MKKGIIRFLLVSFVLFFALSTGITGKQAAPA registered an AmyQ secretion efficiency of 5.05.

The sequence MKKGIIRFLLVSFVLFFALSTGITGSQAAPA registered an AmyQ secretion efficiency of 4.62.

In turn, MKKGIIRFLLVSFVLFFALSTGITGVQAAPD showed an AmyQ secretion efficiency of 2.73.

The sequence MKKGIIRFLLVSFVLFFALSTGITGVQAAPK displayed an AmyQ secretion efficiency of 1.02.

As for MKKGIIRFLLVSFVLFFALSTGITGVQAARK, the AmyQ secretion efficiency was determined as 2.85.

On to MKKGIIRFLLVSFVLFFALSTGITGVQCAPA, for which the AmyQ secretion efficiency turned out to be 6.36.

In turn, MKKGIIRFLLVSFVLFFALSTGITGVQDAPA had an AmyQ secretion efficiency of 6.75.

In turn, MKKGIIRFLLVSFVLFFALSTGITGVQFAPA gave an AmyQ secretion efficiency of 7.18.

Consider MKKGIIRFLLVSFVLFFALSTGITGVQGAPA, for which the AmyQ secretion efficiency was found to be 4.19.

As for MKKGIIRFLLVSFVLFFALSTGITGVQHAPA, the AmyQ secretion efficiency amounted to 5.62.

MKKGIIRFLLVSFVLFFALSTGITGVQLAPA had an AmyQ secretion efficiency of 5.59.

Sequence MKKGIIRFLLVSFVLFFALSTGITGVQRAPA came in with an AmyQ secretion efficiency of 4.88.

As to MKKGIIRFLLVSFVLFFALSTGITGVQSAPA, the AmyQ secretion efficiency is 4.46.

MKKGIIRFLLVSFVLFFALSTGITGVQVAPA registered an AmyQ secretion efficiency of 6.17.

MKKGIIRFLLVSFVLFFALSTGITGVQYAPA registered an AmyQ secretion efficiency of 4.56.

Sequence MKKGIIRFLLVSFVLFFALSTGSTGVQAAPA yielded an AmyQ secretion efficiency of 1.88.

For MKKGIIRFLLVSFVLFSTGITGVQAAPA, the AmyQ secretion efficiency came out at 2.37.

As to MKKGIIRFRRKKFVLFFALSTGITGVQAAPA, the AmyQ secretion efficiency worked out at 4.49.

Turning to MKKGIIRFRRVSFVLFFALSTGITGVQAAPA, the AmyQ secretion efficiency is 2.36.

MKKGIIRKTLVSFVLFFALSTGITGVQAAPA had an AmyQ secretion efficiency of 2.

On to MKKGIIRQSQSQTGLFFALSTGITGVQAAPA, for which the AmyQ secretion efficiency was 7.14.

Regarding MKKGIIRTFFLLVSFVLFFALSTGITGVQAAPA, the AmyQ secretion efficiency came to 2.73.

Take MKKGIIRTGRQSFVLFFALSTGITGVQAAPA: the AmyQ secretion efficiency came to 5.13.

In the case of MKKGIRFLLVSFVLFFALSTGITGVQAAPA, the AmyQ secretion efficiency was found to be 2.35.

Take MKKGKRTRTIGLLTVSIASPSFAAEK: the AmyQ secretion efficiency was 6.26.

Regarding MKKGQYRRGSLGLVFGFSYGAGHVAEAKTK, the AmyQ secretion efficiency turned out to be 7.9.

In turn, MKKGYSTTSTGVLVTTVFLVKQQESVAQAKQL registered an AmyQ secretion efficiency of 7.95.

As for MKKIAGVLTVAAAAMTAKMYATAKGN, the AmyQ secretion efficiency was determined as 7.41.

The sequence MKKIGLLFMLCLAALFTIGFPAQQADAAED had an AmyQ secretion efficiency of 2.02.

In the case of MKKIGLLFMLCLAALFTIGFPAQQADAAPR, the AmyQ secretion efficiency amounted to 1.25.

MKKIGLLFMLCLAALFTIGFPAQQADAEED had an AmyQ secretion efficiency of 2.27.

Sequence MKKIGLLFMLCLAALFTIGFPAQQLDAAEA yielded an AmyQ secretion efficiency of 2.04.

MKKIGLLFMLCLAALKKRRFPAQQADAAEA had an AmyQ secretion efficiency of 7.17.

MKKIGLLFMLCLAALRRRKRKRQQADAAEA showed an AmyQ secretion efficiency of 6.59.

In the case of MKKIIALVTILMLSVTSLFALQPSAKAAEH, the AmyQ secretion efficiency amounted to 2.46.

MKKIITATTAVVLGSTLFAGAASAQSI registered an AmyQ secretion efficiency of 2.35.

In the case of MKKIKKRKFMFGLVMGFSQFQPSTVFAADK, the AmyQ secretion efficiency was found to be 7.57.

Regarding MKKIMIFLTSFMLLAMTGQTALAKDV, the AmyQ secretion efficiency stood at 3.4.

MKKIMSAFVGMVLLTIFCFSPQASAADD: the AmyQ secretion efficiency was determined as 3.32.

Consider MKKIMSAFVGMVLLTIFCFSPQASAAYD, for which the AmyQ secretion efficiency was 4.89 and 4.8.

The sequence MKKIMSAFVGMVLLTIFCFSPQASAEED had an AmyQ secretion efficiency of 2.74.

The sequence MKKIMSAFVGMVLLTIFCFSPQASARRR yielded an AmyQ secretion efficiency of 6.47.

Consider MKKIMSAFVGMVLLTIFCKKRKRRASAAYD, for which the AmyQ secretion efficiency came out at 7.21.

Sequence MKKIMSAFVGMVLLTIFCRRRQASAAYD showed an AmyQ secretion efficiency of 7.16.

The sequence MKKIMSAFVGMVLLTIFCVSTLTFSPQASAAYD yielded an AmyQ secretion efficiency of 4.76.

In turn, MKKIMSARKRRRKLTIFCFSPQASAAYD yielded an AmyQ secretion efficiency of 6.63.

Consider MKKIMSARRRRVLLTIFCFSPQASAAYD, for which the AmyQ secretion efficiency came to 7.27.

With MKKIMSGKKGMVLLTIFCFSPQASAAYD, the AmyQ secretion efficiency was 5.2.

Regarding MKKIRRRKRKCLAALFTIGFPAQQADAAEA, the AmyQ secretion efficiency is 7.19.

MKKISSVMLATALFLGLTPAGANAADL had an AmyQ secretion efficiency of 3.26.

As to MKKIVIILFMFILVMSSGFSQFQPSTVFAADK, the AmyQ secretion efficiency was 3.08.

For MKKIVSILFMFGGFSQFQPSTVFAADK, the AmyQ secretion efficiency was 4.29.

The sequence MKKIVSILFMFGLVMFFFTFTAIGVFAADK gave an AmyQ secretion efficiency of 4.52.

MKKIVSILFMFGLVMGFSQFQPSTGFAADK yielded an AmyQ secretion efficiency of 3.91.

The sequence MKKIVSILFMFGLVMGFSQFQPSTMFAADK gave an AmyQ secretion efficiency of 2.83.

Take MKKIVSILFMFGLVMGFSQFQPSTVFAADK: the AmyQ secretion efficiency was 3.41 and 2.54.

In the case of MKKIVSILFMFGLVMGFSQFQPSTVFAAED, the AmyQ secretion efficiency is 2.13.

Turning to MKKIVSILFMFGLVMGFSQFQPSTVFAAKK, the AmyQ secretion efficiency came out at 2.86.

The sequence MKKIVSILFMFGLVMGFSQFQPSTVFAASD yielded an AmyQ secretion efficiency of 1.84.

MKKIVSILFMFGLVMGFSQFQPSTVFAASP came in with an AmyQ secretion efficiency of 1.65.

For MKKIVSILFMFGLVMGFSQFQPSTVFADED, the AmyQ secretion efficiency came to 4.03.

In turn, MKKIVSILFMFGLVMGFSQFQPSTVFARRK returned an AmyQ secretion efficiency of 5.68.

Regarding MKKIVSILFMFGLVMGFSQFQPSTVFGADK, the AmyQ secretion efficiency turned out to be 4.23.

MKKIVSILFMFGLVMGFSSFFPSTVFAADK gave an AmyQ secretion efficiency of 3.12.

In turn, MKKIVSILFMFGLVMKKKQFQPSTVFAADK came in with an AmyQ secretion efficiency of 7.82.

Sequence MKKIVSILFMFGLVMRRKRKKPSTVFAADK returned an AmyQ secretion efficiency of 7.34.

In turn, MKKIVSILFMFGLVMSIISLGFSQFQPSTVFAADK came in with an AmyQ secretion efficiency of 2.96.

The sequence MKKIWIGMLAAAMVPKVSLADAA gave an AmyQ secretion efficiency of 5.25.

For the sequence MKKIWIGMLAAAVLLLITISVTAAMVPKVSLADAA, the AmyQ secretion efficiency was 5.

MKKIWIGMLAAAVLLLMVPKVDLADAA gave an AmyQ secretion efficiency of 4.2.

On to MKKIWIGMLAAAVLLLMVPKVGLADAA, for which the AmyQ secretion efficiency came to 3.24.

MKKIWIGMLAAAVLLLMVPKVMLADAA returned an AmyQ secretion efficiency of 4.26.

MKKIWIGMLAAAVLLLMVPKVSLAAAD came in with an AmyQ secretion efficiency of 5.09.

For the sequence MKKIWIGMLAAAVLLLMVPKVSLADAA, the AmyQ secretion efficiency is 3.23 and 2.34 and 3.08.

Regarding MKKIWIGMLAAAVLLLMVPKVSLAEDD, the AmyQ secretion efficiency was 4.09.

The sequence MKKIWIGMLAAAVLLLMVPKVSLRDAA displayed an AmyQ secretion efficiency of 4.91.

Regarding MKKIWIGMLAAAVLLLMVPKVSPAVPSGFSLADAA, the AmyQ secretion efficiency is 6.35.

For the sequence MKKIWIGMLAAAVLLLMVPKVVLADAA, the AmyQ secretion efficiency worked out at 3.66.

MKKIWIGMLAAAVLLLRKPKVSLADAA displayed an AmyQ secretion efficiency of 7.91.

Sequence MKKIWIGMLAAAVLLLRKRKKKSLADAA displayed an AmyQ secretion efficiency of 6.58.

On to MKKIWIGMLAAAVLLLSVFAMVPKVSLADAA, for which the AmyQ secretion efficiency was determined as 4.61.

For the sequence MKKIWIGMLAAAVLLLTKPKESLADAA, the AmyQ secretion efficiency was 3.56.

As to MKKKIIRFLLVSFVLFFALSTGITGVQAAPA, the AmyQ secretion efficiency was determined as 2.57.

For MKKKIRRKKKKSAVVGSSMAAAPAEAKTI, the AmyQ secretion efficiency is 7.24.

Turning to MKKKIRRRKAVSAVVGSSMAAAPAEAKTI, the AmyQ secretion efficiency turned out to be 5.54.

As for MKKKIVAGLAVSAGSSMAAAPAEAKTI, the AmyQ secretion efficiency is 7.16.

As to MKKKIVAGLAVSAVVDEDEEAAPAEAKTI, the AmyQ secretion efficiency turned out to be 5.93.

For the sequence MKKKIVAGLAVSAVVGAEAKTI, the AmyQ secretion efficiency is 8.76.

On to MKKKIVAGLAVSAVVGSSMAAEAKTI, for which the AmyQ secretion efficiency is 5.65.

MKKKIVAGLAVSAVVIVAMAAAIAEAKTI registered an AmyQ secretion efficiency of 6.55.

As for MKKKIVAGLAVSAVVQDDPSAAPAEAKTI, the AmyQ secretion efficiency came to 7.07.

Source of the values: the supplement of paper PMC9942255.
